These results are taken from US20080214468A1 (UNIVERSITY OF VIRGINIA PATENT FOUNDATION, published 2008).

Where no end group is shown, it is not given here.

For the experiment, the target named is Vimentin from bovine aortic endothelial cells (bovine, UniProt P48616 2-466). The experiment in a line: affinity chromatography of BAEC cell fractions on immobilized peptide. How it is done: Membrane and cytosol fractions from human bone marrow endothelial cells and bovine aortic endothelial cells were prepared and used to identify the components from within these fractions that bind to the peptides using affinity chromatography). […] Cell surface nucleolin is present at higher concentrations in actively dividing cells and is down regulated in cells when they become quiescent. Nucleolin is the apparent cell surface receptor of E-coli intimin-gamma. Cell bound intimin has been proposed to trigger a host cell response similar to the extension of filipodia when cells bind to laminin. […] Table 3 provides a summary of peptide-binding partners (putative receptors) identified by affinity chromatography of cell lysates.
Vimentin from bovine aortic endothelial cells, sequence (P48616 2-466 limits assumed): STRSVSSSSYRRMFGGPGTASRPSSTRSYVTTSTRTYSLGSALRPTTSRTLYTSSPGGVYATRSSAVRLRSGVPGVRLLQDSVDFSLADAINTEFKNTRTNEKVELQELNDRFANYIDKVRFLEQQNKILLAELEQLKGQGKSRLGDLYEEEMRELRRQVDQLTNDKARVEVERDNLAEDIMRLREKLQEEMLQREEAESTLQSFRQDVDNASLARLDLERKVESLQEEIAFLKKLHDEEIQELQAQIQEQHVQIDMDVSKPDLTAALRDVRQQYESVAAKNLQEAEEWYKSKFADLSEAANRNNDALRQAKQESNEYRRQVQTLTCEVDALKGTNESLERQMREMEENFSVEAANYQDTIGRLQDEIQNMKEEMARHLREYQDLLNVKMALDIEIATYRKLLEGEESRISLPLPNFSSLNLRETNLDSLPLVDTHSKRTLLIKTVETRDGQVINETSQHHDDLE

For QRSWTLDSALSMGGGS (also: biotinylated, position not given here, 12-mer with the C-terminal GGGS linker) [peptide L12 (SEQ ID NO:7)], the binding result is reported as “binds”. In the case of SYSQMDPPRSLPGGGS (also: biotinylated, position not given here, 12-mer with the C-terminal GGGS linker) [peptide R8 (SEQ ID NO:14)] it was “binds”.
